Test [1] deals with Isoform 121 of human VEGF-A (Peprotech) (human) (UniProt P15692). As to the kind of experiment: ELISA, antigen coated at 5 µg/mL, KDR-Fc 0.125 µg/mL. For orientation: In an ELISA, binding on a coated surface is turned into a signal by an enzyme label.
The target is the same in test [2]. The test can be described thus: ELISA, antigen coated at 5 µg/mL, KDR-Fc 1.0 µg/mL.
For test [3] the target is unchanged. As to the kind of experiment: ELISA, antigen coated at 5 µg/mL, KDR-Fc 0.25 µg/mL.
Test [4] shares this target. The test can be described thus: ELISA, antigen coated at 5 µg/mL, KDR-Fc 0.5 µg/mL.
The target in test [5] is P6447aa-VEGF fusion protein (human (VEGF part); Neisseria meningitidis (P64K part)). The test can be described thus: ELISA on coated antigen, 20 µg/mL; negative control.
The target in test [6] is Isoform 121 of human VEGF-A (Peprotech) (human) (UniProt P15692). Described as above.

Chain of soluble human receptor KDR-Fc (Sigma) (P35968 20-764 limits assumed): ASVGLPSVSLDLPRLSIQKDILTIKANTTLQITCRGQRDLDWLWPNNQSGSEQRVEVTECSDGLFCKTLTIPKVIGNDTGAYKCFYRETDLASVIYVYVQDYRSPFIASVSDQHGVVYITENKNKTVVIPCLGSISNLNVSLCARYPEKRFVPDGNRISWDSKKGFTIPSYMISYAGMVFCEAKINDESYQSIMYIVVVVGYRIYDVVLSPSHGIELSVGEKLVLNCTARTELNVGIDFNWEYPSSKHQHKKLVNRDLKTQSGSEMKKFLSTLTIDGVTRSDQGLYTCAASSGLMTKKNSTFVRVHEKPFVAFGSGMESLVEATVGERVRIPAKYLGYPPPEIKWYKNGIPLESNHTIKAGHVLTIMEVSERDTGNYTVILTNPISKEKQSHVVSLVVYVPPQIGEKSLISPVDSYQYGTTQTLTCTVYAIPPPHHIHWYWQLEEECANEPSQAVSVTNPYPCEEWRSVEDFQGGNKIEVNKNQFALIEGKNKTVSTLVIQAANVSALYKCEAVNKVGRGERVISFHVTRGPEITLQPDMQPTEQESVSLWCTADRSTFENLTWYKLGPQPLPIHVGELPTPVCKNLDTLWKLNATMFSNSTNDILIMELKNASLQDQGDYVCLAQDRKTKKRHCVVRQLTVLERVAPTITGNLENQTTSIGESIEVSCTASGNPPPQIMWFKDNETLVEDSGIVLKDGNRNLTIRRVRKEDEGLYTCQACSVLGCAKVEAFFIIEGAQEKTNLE
Chain of Isoform 121 of human VEGF-A (Peprotech) (human) (P15692 other isoform, or with tags, fused parts or gaps): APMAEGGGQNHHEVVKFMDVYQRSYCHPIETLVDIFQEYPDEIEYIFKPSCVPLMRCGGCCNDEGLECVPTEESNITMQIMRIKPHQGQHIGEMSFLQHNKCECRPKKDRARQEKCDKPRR

Consider “soluble human receptor KDR-Fc (Sigma) (from UniProt P35968 20-764) (Fc fusion)”, for which the absorbance at 492 nm in test [1] was 0.76 OD 492 nm; in test [2], 1.48 OD 492 nm; in test [3] it was 1.04 OD 492 nm; in test [4], 1.27 OD 492 nm.
As to “TheraCIM (anti EGF receptor humanized IgG1 antibody; CIMAB SA, Havana)”, the results for the absorbance at 492 nm in test [5] and in test [6] were 0.112 OD 492 nm and 0.097 OD 492 nm, respectively.

These data come from patent US20100151566A1.
